Test results: article PMC4351142 (Structure (London, England : 1993), 2015)

T1: CHIP-TPR domain (HsCHIP 21-154) (human, UniProt Q9UNE7 21-154)
T1 sequence (looked up): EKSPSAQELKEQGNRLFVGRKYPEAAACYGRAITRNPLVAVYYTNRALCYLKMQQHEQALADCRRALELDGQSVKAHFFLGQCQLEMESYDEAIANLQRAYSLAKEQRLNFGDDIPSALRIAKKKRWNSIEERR


Tests used:
[1] = target: CHIP-TPR domain (HsCHIP 21-154) (human) (UniProt Q9UNE7); test: NMR titration
[2] = target: T1, CHIP-TPR domain (HsCHIP 21-154); test: crystal structure

Molecule | Kd [1] [µM] | binding result [2]
Hsc70-lid-tail-ΔGPTIEEVD (domain or fragment) | > 100 | 
HsHsc70_(541-646)Δ_(626-638) (domain or fragment, human, UniProt P11142 541-646, looked up) SLESYAFNMKATVEDEKLQGKINDEDKQKILDKCNEIINWLDKNQTAEKEEFEHQQKELEKVCNPIITKLYQSAGGMPGGMPGGFGPTIEEVD |  | binds
